Source: article PMC10651481, “m1A in CAG repeat RNA binds to TDP-43 and induces neurodegeneration”

How the values were obtained:
TDP-43-RRM = TDP-43-RRM (UniProt Q13148 104-262); experiment: EMSA; EMSA: 10 mM HEPES pH 8.0, 50 mM KCl, 1 mM EDTA, 5% glycerol, 1 mM DTT, 40 U/ml RNase inhibitor, 4 C, 1 h; 20 fmol probe in 20 ul; 8% native PAGE; settings: protein: recombinant
TDP-43 full-length [1] = target: T1, TDP-43 full-length (UniProt Q13148 1-414); experiment: as above; settings: protein: recombinant, tags: MBP-6xHis (C-terminal as named TDP-43-MBP-6xHis)
T1 sequence (Q13148 whole entry): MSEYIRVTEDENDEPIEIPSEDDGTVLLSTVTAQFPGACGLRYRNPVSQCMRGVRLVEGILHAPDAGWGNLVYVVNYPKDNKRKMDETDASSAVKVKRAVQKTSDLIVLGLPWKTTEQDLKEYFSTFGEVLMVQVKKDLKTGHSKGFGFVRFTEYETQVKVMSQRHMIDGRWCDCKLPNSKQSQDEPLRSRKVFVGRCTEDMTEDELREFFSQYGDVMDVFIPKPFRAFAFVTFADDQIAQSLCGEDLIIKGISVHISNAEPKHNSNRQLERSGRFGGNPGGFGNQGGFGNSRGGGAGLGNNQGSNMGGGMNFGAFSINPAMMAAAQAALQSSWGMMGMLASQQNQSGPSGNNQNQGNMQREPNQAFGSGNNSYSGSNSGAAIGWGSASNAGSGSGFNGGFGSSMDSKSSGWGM

TDP-43 full-length [2] = target: T1, TDP-43 full-length; experiment: EMSA; separate experiment run beside 5FL; differs from 70 nM in 3d,e; EMSA: 10 mM HEPES pH 8.0, 50 mM KCl, 1 mM EDTA, 5% glycerol, 1 mM DTT, 40 U/ml RNase inhibitor, 4 C, 1 h; 20 fmol probe in 20 ul; 8% native PAGE; settings: protein: recombinant; tags: MBP-6xHis (C-terminal as named TDP-43-MBP-6xHis); label: 5'-32P

Sequence of TDP-43-RRM (Q13148 104-262): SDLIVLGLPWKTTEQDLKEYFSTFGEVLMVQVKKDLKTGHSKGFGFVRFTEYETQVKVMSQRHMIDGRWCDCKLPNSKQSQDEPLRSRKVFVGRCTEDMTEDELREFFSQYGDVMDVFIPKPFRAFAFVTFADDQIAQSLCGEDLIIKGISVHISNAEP

| Binder | Kd (TDP-43-RRM; label: 5'-32P) | Kd (TDP-43 full-length [1]; label: 5'-32P) | Kd (TDP-43-RRM; label: 5'-biotin, 3'-32P pCp) | Kd (TDP-43 full-length [1]; label: 5'-biotin, 3'-32P pCp) | Kd (TDP-43 full-length [2]) |
| --- | --- | --- | --- | --- | --- |
| CAGCAGCAGCAGCAGCAGCAG (ssRNA) [(CAG)7-0m1A] | 380 nM | 146 nM | – | – | – |
| CCGUUCCGCCCAGGCCGCGCCCAGCUGGAAUGCA (ssRNA) [Control RNA probe (rA)] | – | – | 73 nM | 38 nM | – |
| CCGUUCCGCCCAGGCCGCGCCCAGCUGGAAUGCA (ssRNA, m1A at position 12) [m1A RNA probe] | – | – | 31 nM | 18 nM | – |
| CCGUUCCGCCCAGGCCGCGCCCAGCUGGAAUGCA (ssRNA, m6A at position 12) [m6A RNA probe] | – | – | 81 nM | 46 nM | – |
| CAGCAGCAGCAGCAGCAGCAG (ssRNA, m1A at position 11) [(CAG)7-1m1A] | 180 nM | 70 nM | – | – | 13.1 nM |
